Measured values: patent US20240376185A1 (SMIVET B V, published 2024)

T1: recombinant tetanus toxin fragment C (rTTC) (Clostridium tetani, UniProt P04958 865-1315)
T1 sequence: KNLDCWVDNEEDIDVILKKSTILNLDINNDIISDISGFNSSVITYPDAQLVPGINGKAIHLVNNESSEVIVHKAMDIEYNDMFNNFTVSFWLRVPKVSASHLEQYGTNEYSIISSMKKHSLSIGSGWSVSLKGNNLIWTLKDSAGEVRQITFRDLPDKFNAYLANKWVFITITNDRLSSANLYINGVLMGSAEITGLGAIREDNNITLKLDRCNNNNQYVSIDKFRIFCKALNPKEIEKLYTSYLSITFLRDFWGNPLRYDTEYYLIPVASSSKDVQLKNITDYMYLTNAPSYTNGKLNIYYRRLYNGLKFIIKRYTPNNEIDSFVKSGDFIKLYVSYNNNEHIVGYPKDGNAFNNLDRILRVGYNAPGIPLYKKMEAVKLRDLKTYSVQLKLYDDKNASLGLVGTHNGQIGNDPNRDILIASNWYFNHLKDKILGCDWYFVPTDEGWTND


How the values were obtained:
[1] = biological target: T1, recombinant tetanus toxin fragment C …; assay: ELISA, directly coated rTTC, unlabelled binder
[2] = biological target: T2, tetanus neurotoxin (TeNT), authentic tetanus holotoxin (Clostridium tetani, UniProt P04958 2-1315); assay: competition ELISA on TeNT, binder biotinylated; competitor SVT15L
[3] = biological target: T2, tetanus neurotoxin (TeNT), authentic …; assay: competition ELISA on TeNT, binder biotinylated; competitor mAb 11n185
[4] = biological target: T2, tetanus neurotoxin (TeNT), authentic …; assay: competition ELISA on TeNT, binder biotinylated; competitor mAb 6F57
[5] = biological target: T2, tetanus neurotoxin (TeNT), authentic …; assay: competition ELISA on TeNT, binder biotinylated; competitor SVT08L
[6] = biological target: T1, recombinant tetanus toxin fragment C …; assay: ELISA, rTTC captured with coated mAb 6E7
[7] = biological target: T2, tetanus neurotoxin (TeNT), authentic …; assay: competition ELISA on TeNT, binder biotinylated; competitor SVT22L
[8] = biological target: T2, tetanus neurotoxin (TeNT), authentic …; assay: GT1b-TeNT inhibition ELISA, EC at A450 0.59
[9] = biological target: T2, tetanus neurotoxin (TeNT), authentic …; assay: competition ELISA on TeNT, binder biotinylated; competitor SVT06L
[10] = biological target: T2, tetanus neurotoxin (TeNT), authentic …; assay: competition ELISA on TeNT, binder biotinylated; competitor SVT13L
[11] = biological target: T2, tetanus neurotoxin (TeNT), authentic …; assay: ELISA, directly coated TeNT, unlabelled binder
[12] = biological target: T2, tetanus neurotoxin (TeNT), authentic …; assay: ELISA, TeNT captured with cAb-TT2, unlabelled binder
[13] = biological target: T2, tetanus neurotoxin (TeNT), authentic …; assay: ELISA, directly coated TeNT, biotinylated binder
[14] = biological target: T2, tetanus neurotoxin (TeNT), authentic …; assay: competition ELISA on TeNT, binder biotinylated; competitor SVT34L
[15] = biological target: T2, tetanus neurotoxin (TeNT), authentic …; assay: GT1b-TeNT inhibition ELISA, unlabelled binder
[16] = biological target: T2, tetanus neurotoxin (TeNT), authentic …; assay: competition ELISA on TeNT, binder biotinylated; competitor SVT02L
[17] = biological target: T2, tetanus neurotoxin (TeNT), authentic …; assay: ELISA, TeNT captured with coated mAb 6E7
[18] = biological target: T2, tetanus neurotoxin (TeNT), authentic …; assay: competition ELISA on TeNT, binder biotinylated; competitor SVT03L
[19] = biological target: T2, tetanus neurotoxin (TeNT), authentic …; assay: competition ELISA on TeNT, binder biotinylated; competitor mAb 14F5
[20] = biological target: T2, tetanus neurotoxin (TeNT), authentic …; assay: competition ELISA on TeNT, binder biotinylated; competitor SVT15L-3FW4M
[21] = biological target: T2, tetanus neurotoxin (TeNT), authentic …; assay: competition ELISA on TeNT, binder biotinylated; competitor mAb 6E7
[22] = biological target: T2, tetanus neurotoxin (TeNT), authentic …; assay: ELISA, TeNT captured with cAb-TT2, biotinylated binder
[23] = biological target: T2, tetanus neurotoxin (TeNT), authentic …; assay: ELISA, directly coated TeNT
[24] = biological target: T2, tetanus neurotoxin (TeNT), authentic …; assay: competition ELISA on TeNT, binder biotinylated; competitor SVT16L
human serum albumin [25] = biological target: T3, human serum albumin (human, UniProt P02768 25-609); assay: ELISA, E. coli supernatant
T3 construct: mature; also called human Alb

human serum albumin [26] = biological target: T3, human serum albumin; assay: ELISA, coated albumin, E. coli supernatant
horse serum albumin = biological target: T4, horse serum albumin (horse, UniProt P35747 25-607); assay: ELISA, coated albumin, E. coli supernatant
T4 construct: mature; also called horse Alb; Equine albumin

dog serum albumin = biological target: T5, dog serum albumin (dog, UniProt P49822 25-608); assay: ELISA, coated albumin, E. coli supernatant
T5 construct: mature; also called dog Alb; Canine albumin

dog albumin (dog Alb) [27] = biological target: T6, dog albumin (dog Alb) (dog, UniProt P49822 25-608); assay: ELISA: coated dog Alb, anti-his6 PO
T6 construct: also called Canine albumin

dog albumin (dog Alb) [28] = biological target: T6, dog albumin (dog Alb); assay: ELISA: coated dog Alb, anti-his6 PO; remark: listed apart in the source

| Binder | maximal absorbance at 450 nm [1] | % inhibition of binding [2] | % inhibition of binding [3] | % inhibition of binding [4] | % inhibition of binding [5] | absorbance at 450 nm [6] | % inhibition of binding [7] | concentration giving A450 of 0.59 [8] | % inhibition of binding [9] | % inhibition of binding [10] | EC resulting in A450 0.2 [11] | maximal absorbance at 450 nm [11] | EC resulting in A450 0.15 [12] | maximal absorbance at 450 nm [12] | EC resulting in A450 0.4 [13] | maximal absorbance at 450 nm [13] | binding result (human serum albumin [25]) | absorbance at 450 nm (human serum albumin [26]) | absorbance at 450 nm (horse serum albumin) | absorbance at 450 nm (dog serum albumin) | further results |
| --- | --- | --- | --- | --- | --- | --- | --- | --- | --- | --- | --- | --- | --- | --- | --- | --- | --- | --- | --- | --- | --- |
| SVT15L-3FW4M (VHH) VHH: QVQLQESGGGLVQTGGSLRLSCRASGRAFANYHFGWFRQAPGKDREFVASISWKGGSTYYANFALGRFTSSVDRAESSVYLQMSGLTPEDTATYYCAAHDGGDWNYHTGMDYWGQGTQVTVSS | 0.206 | 96% | -1% | 6% | 6% | 0.528 | 4% | 0.039 µg/mL | 7% | -5% | 3.8 ng/mL | 0.817 | 9.8 ng/mL | 0.195 | 2 ng/mL | 1.37 | – | – | – | – | % inhibition of binding [14]: 3%; minimal absorbance at 450 nm [15]: 0.127; % inhibition of binding [16]: 10%; absorbance at 450 nm [17]: 0.236; % inhibition of binding [18]: -8%; % inhibition of binding [19]: 2%; % inhibition of binding [20]: 95%; % inhibition of binding [21]: 6%; EC resulting in A450 0.2 [22]: 3.5 ng/mL; maximal absorbance at 450 nm [22]: 0.697; absorbance at 450 nm [23]: 0.477; % inhibition of binding [24]: 3% |
| SVT16L (VHH) VHH: QVQLQESGGGSVQAGDSLRLSCAASGRTISNYAMGWFRQAPGKQREFVAAISRSDNTYYTDSVKGRFTISRDNAKNTLYLQMNSLKPEETAVYYCAADPNLMYESKWKYRALEAWGQGTLVTVSS | 1.01 | 12% | -2% | 2% | 2% | 1.38 | 96% | 0.047 µg/mL | -8% | 96% | 1.1 ng/mL | 1.57 | 3.2 ng/mL | 0.363 | 0.52 ng/mL | 1.42 | – | – | – | – | % inhibition of binding [14]: 95%; minimal absorbance at 450 nm [15]: 0.129; % inhibition of binding [16]: 13%; absorbance at 450 nm [17]: 1.13; % inhibition of binding [18]: -1%; % inhibition of binding [19]: 6%; % inhibition of binding [20]: 17%; % inhibition of binding [21]: 6%; EC resulting in A450 0.2 [22]: 1.6 ng/mL; maximal absorbance at 450 nm [22]: 0.971; absorbance at 450 nm [23]: 1.27; % inhibition of binding [24]: 95% |
| SVA16 (VHH, not shown: large carriers) VHH: QVQLQESGGGVVQAGGSLRLSCAASGRTVSSSAMGWFRLAPGKEREFVVGISRSGGSIFYADSVKGRFTISRKNAKNTVDLQMNSLKPEDTAVYYCAAGYRPGYGDYGRVFYREDEYDDWGQGTQVTVSS | – | – | – | – | – | – | – | – | – | – | – | – | – | – | – | – | no binding | 0.083 A450 | 2.11 A450 | 2.02 A450 | – |
| SVA06 (VHH) VHH: QVQLQESGGRLVQAEDSLRLSCAASGRTFVSYDMGWFRQAPGKEREFVAAINWRGYTTDYVDSVKGRFFISRDIAKSTVYLQMNNLKPEDTAVYYCAARQMSGSSRYSPPGRVGYDFWGQGTQVTVSS | – | – | – | – | – | – | – | – | – | – | – | – | – | – | – | – | no binding | 0.067 A450 | 1.66 A450 | 1.99 A450 | – |
| SVA02 (VHH, not shown: large carriers) VHH: QVQLQQSGGGLVQAGGSLRLSCAASGRFFSRQVMGWFRQAPGKDREFVGVISWDNGVTFYSDSVKGRFTMSREIAKKTVHLQMNSLKPEDTAVYYCAAGNALHSRYYSPSKYDYWGPGTQVTVSS | – | – | – | – | – | – | – | – | – | – | – | – | – | – | – | – | no binding | 0.065 A450 | 1.9 A450 | 1.87 A450 | – |
| SVT16-L123Q-GS2-SVA12M2-H6 (bispecific antibody) QVQLQESGGGSVQAGDSLRLSCAASGRTISNYAMGWFRQAPGKQREFVAAISRSDNTYYTDSVKGRFTISRDNAKNTLYLQMNSLKPEETAVYYCAADPNLMYESKWKYRALEAWGQGTQVTVSSGGGGSGGGSEVQLVESGGGLVQAGGSLRLSCAASGRTFSYYPMAWFRQAPGQEREFVAAIIGADTTYYADSLKGRFTISRDNAKNMVYLQMNSLKPEDTAVYYCAARNTYWSDVYYREGQYTNWGQGTQVTVSSHHHHHH | – | – | – | – | – | – | – | – | – | – | – | – | – | – | – | – | – | – | – | – | Effective SDA Concentration at A450 0.2 (dog albumin (dog Alb) [27]): 34 ng/mL; maximal absorbance value (dog albumin (dog Alb) [28]): 1.78 A450 |
